The values that follow come from publication PMC8815872, “A novel dual-labeled small peptide as a multimodal imaging agent for targeting wild-type EGFR in tumors” (PLoS ONE, 2022).

Like-named read-outs stand apart in the source and are kept apart here. Where a SMILES comes first, the peptide text is derived from it. The star is where a group is joined. 5TAMRA = CN(C)c1ccc2c(c1)Oc1cc(N(C)C)ccc1C21OC(=O)c2cc(C(=O)*)ccc21

In data set [1] the test system is mice bearing NCI-H460 and SW620 tumors. The experiment in a line: Ex vivo fluorescent imaging of excised organs and tumors. As to conditions: excised tumors after in vivo gamma camera imaging, n = 5. The method, then: Exposure time was 2.0 s per image. The images were analyzed using the dedicated software.
Data set [2] can be described thus: Radiochemical stability in saline. It is filed as physicochemical. Conditions: room temperature, silica capillary column radio-chromatography, mean ± SD, n = 3. On the procedure:
To evaluate the radiochemical stability of the Tc-99m peptide complex, the labeled complex (0.1 ml) was incubated with 1 ml of saline at room temperature and freshly collected human serum at 37°C. Samples were collected at 30 min and at 1, 3, and 24 h and were analyzed using capillary column with saline (Rf of Tc-99m SYPIPDT-ECG-TAMRA and free pertechnetate = 0.9–1.0; Rf of colloid = 0.0–0.1) and acetone (Rf of free pertechnetate = 0.9–1.0; Rf of Tc-99m SYPIPDT-ECG-TAMRA and colloid = 0.0–0.1) as mobile phases. All experiments were conducted in triplicate (n = 3).

Data set [3] deals with mice bearing NCI-H460 and SW620 tumors.
Procedure: (§2) Six-week-old female homozygous athymic BALB/c nu/nu mice (weighing 16–18 g) were purchased from Damul Science (Daejeon, Korea) and kept in cages. They were provided free access to food and tap water. After one week of adaptation to laboratory conditions, the mice were subcutaneously inoculated with 1 × 10^7 NCI-H460 (wtEGFR-positive) and SW620 (wtEGFR-negative, as an internal reference) cells (in 0.1 ml PBS) in both sides of the anterior chest region, respectively. The tumors were allowed to grow to about 300 to 400 mm^3 in volume. Tumor volume was calculated using the formula: V (mm^3) = 0.5 × a × b^2, where a and b represent the long and perpendicular short diameters of the tumor by caliper measurements. Approximately 21 days after inoculation, gamma camera imaging and biodistribution studies were performed.
(§3) Following the in vivo gamma camera imaging study, mice were sacrificed by cervical dislocation after anesthesia by intraperitoneal injection of 100 mg/kg bodyweight ketamine (n = 5).
(§4) Tissues of tumors and selected organs were weighed and collected into pre-weighed gamma counter tubes. The radioactivity of the tissues were counted using a gamma counter (1480 Wizard 3; PerkinElmer Life and Analytical Sciences) and counts per minute were decay-corrected. Results are expressed as a percentage injected dose per gram of wet tissue (%ID/g). Total activities injected per animal were calculated by evaluating the difference between pre-injection syringe counts and remaining syringe counts after injection.
Data set [4] has as its system NCI-H460 cells (wtEGFR-positive). Kind of data set: Cellular uptake using confocal microscopy, NCI-H460 cells. As to conditions: 200 nM, 37°C, 1 h, serum free medium. Format: cell-based, human. On the procedure: (§1) NCI-H460 and SW620 cells (1 × 10^5 cells) were cultured on the top of a cover-slip slide for 24 h at 37°C. The medium was replaced with fresh serum free medium (500 μL) containing Tc-99m SYPIPDT-ECG-TAMRA (200 nM). Cells were then incubated at 37°C for 1 h. These cells were rinsed three times with phosphate-buffered saline (PBS). The cell were stained with anti-human wtEGFR antibody (cat. 4267S; Cell Signaling Technology, Danvers, MA, USA) and Alexa Fluor® 488-conjugated goat anti-rabbit secondary antibody (cat. 111-545-003, 1:100 dilution; Jackson Immuno Research Inc., West Grove, PA, USA). The slides were covered with fluorescent mounting medium (Dako, Glostrup, Denmark) and closed with cover glasses. The confocal microscopic study was performed with a FV1200 confocal microscope (Olympus, Pittsburgh, PA, USA) with a 100× oil immersion lens.

Data set [5] relates to NCI-H460 and SW620 tumor tissue. Kind of data set: Confocal microscopy with immunohistochemical staining of tumor tissue. It is filed as in vivo, mice. Conditions: frozen tumor slices. The method, then:
After the ex vivo imaging study, tumor tissues were snap-frozen in liquid nitrogen. Frozen tumor tissues were cut into slices (10 μm in thickness). After drying at room temperature, slices were fixed with ice-cold acetone for 10 min and then air dried at room temperature for 20 min. Tumor sections were maintained with 5% goat serum for 30 min at room temperature for blocking of nonspecific binding. Then, tumor sections were stained with anti-human wtEGFR antibody (cat. 4267S; Cell Signaling Technology, Danvers, MA, USA) for 1 h at room temperature. After being rinsed with PBS buffer, tumor slides were incubated with Alexa Fluor® 488-conjugated goat anti-rabbit secondary antibody (cat. 111-545-003, 1:100 dilution; Jackson Immuno Research Inc., West Grove, PA, USA). After being washed three times with PBS, tumor slides covered using Prolong® Gold Antifade Reagent with 4’,6-diamidino-2-phenylindole (DAPI; Invitrogen, Carlsbad, CA, USA) and closed with cover glasses. Confocal microscopic study was performed using a FV1200 confocal microscope (Olympus) with a 60× oil immersion lens.

Data set [6] concerns NCI-H460 cells (wtEGFR-positive). Kind of data set: Saturation binding study, NCI-H460 cells. Conditions: 37°C, 1 h. Also noted: species or system human. On the procedure:
NCI-H460 and SW620 cells were cultured in a humidified atmosphere with 5% carbon dioxide at 37°C. The cells were maintained in Dulbecco modified Eagle medium supplemented with 10% fetal bovine serum, streptomycin (100 μg/ml), and penicillin (100 U/ml). The cells were used for experiments and studies once about 80% confluence had been reached.
The binding affinities of Tc-99m SYPIPDT-ECG-TAMRA for NCI-H460 and SW620 cells were evaluated by saturation binding studies as described previously. Briefly, NCI-H460 and SW620 cells were plated into 96-well plates at a density of 1 × 10^4 cells/well and cultured overnight. Cells were washed twice (5 min each) using ice-cold binding buffer (25 mM HEPES and 1% bovine serum albumin). A concentration gradient (0–2,000 nM) of Tc-99m SYPIPDT-ECG-TAMRA was added to the wells and the cells were maintained at 37°C for 1 h. The total volume of each well was 200 μl. After cells were washed twice using ice-cold binding buffer, the cells of each well were obtained for gamma counting. Radioactivities of collected cells were measured using a 1480 Wizard 3 gamma counter (PerkinElmer Life and Analytical Sciences, Wallingford, CT, USA). The binding affinity value (Kd) was calculated by non-linear regression models of GraphPad Prism software version 5.03 (GraphPad Software, La Jolla, CA, USA). Each data point is the average value of four determinations.

The next data set can be described thus: in vivo. Conditions: female, athymic BALB/c nu/nu, mouse, total radioactivity, Mean %ID/g (SD).
The subject of another data set is EGFR. As to conditions: concentration dependent; cited from earlier work. The text has this:
A major drawback of these imaging agents is their large size, which hinders efficient penetration into the targeted tissue and prevents rapid clearance from the non-targeted tissues. Therefore, efforts have been made to reduce the size of the targeting agents. Monoclonal antibody fragments such as Fab′, scFv, Affibody and Nanobody, have been investigated. However, the antibody fragments show reduced binding affinity for their target compared to the parental antibody, and their stability also decreases over time. In the present study, we tried to overcome these drawbacks by utiliz ...

The test system of data set [7] is SW620 cells (wtEGFR-negative). The experiment in a line: Cellular uptake using confocal microscopy, SW620 cells. Conditions: 200 nM, 37°C, 1 h, serum free medium. It is filed as cell-based, human. The method, then:
as §1

The mark [8] stands for this setting: NCI-H460 tumor (wtEGFR-positive).

Procedure for in vivo: as §2, §3, §4

As to `CC[C@H](C)[C@H](NC(=O)[C@@H]1CCCN1C(=O)[C@H](Cc1ccc(O)cc1)NC(=O)[C@@H](N)CO)C(=O)N1CCC[C@H]1C(=O)N[C@@H](CC(=O)O)C(=O)N[C@H](C(=O)NCC(=O)N[C@@H](Cc1c[nH]cn1)C(=O)N[C@@H](CCC(=O)O)C(=O)NCC(=O)N[C@@H](CCC(=O)O)C(=O)N[C@@H](CS)C(=O)NCC(=O)N[C@@H](CCCCNC(=O)c1ccc2c(c1)C(=O)OC21c2ccc(N(C)C)cc2Oc2cc(N(C)C)ccc21)C(=O)O)[C@@H](C)O` [Tc-99m SYPIPDT-ECG-TAMRA, Tc-99m SYPIPDT-GHEG-ECG-K-tetramethylrhodamine, metal not drawn] (H-SYPIPDTGHEGECGK(5TAMRA)-OH), the “ex vivo fluorescent activity, NCI-H460 tumor versus SW620 tumor” value in [1] is “significantly higher fluorescent activity”. In addition, the “intact percentage incubated in saline” value in data set [2] (30 min, 0.1 ml complex in 1 ml) was 95.1 ± 0.6%; in data set [2] (1 h) it was 94.7 ± 1.3%; in [2] (3 h), 93.9 ± 1.1%; in data set [2] (24 h) it was 92.1 ± 1.4%. Also, the entries for the “tumor to normal muscle ratio of the %ID/g values” in data set [3] (1 h after injection) and in [3] (3 h after injection) were 2.45 ± 0.22 and 7.13 ± 2.00, respectively. Besides, the “fluorescence activity of TAMRA on cells (confocal microscopy)” value in data set [4] was “strong fluorescence activity”. For the same compound, in data set [5] (NCI-H460 tumor), the “fluorescence within NCI-H460 tumor tissue (confocal microscopy)” value is given as “significant”. Besides, the “fluorescent activity of TAMRA in SW620 tumor tissue (confocal microscopy)” value in [5] (SW620 tumor) was “barely detected”. In addition, the Kd in [6] (0-2,000 nM, gamma counting, non-linear regression, four determinations per point, read-out: binding affinity value (Kd) for NCI-H460 cells) was determined as 76.5 ± 15.8 nM. The Bmax in [6] (NCI-H460 cells) was found to be 3652 ± 189 fmol/mg protein. For the same compound, the tissue uptake at 1 h in the data set “in vivo” (Blood) amounted to 3.22 %ID/g; in the data set “in vivo” (Colon), 1.11 %ID/g; in “in vivo” (Heart) it was 1.43 %ID/g; in the data set “in vivo” (Kidneys), 21.1 %ID/g; in “in vivo” (Liver), 1.9 %ID/g; in the data set “in vivo” (Lungs) it was 2.23 %ID/g. For the same compound, the tissue uptake at 1 h was determined as 0.79 %ID/g in the data set “in vivo” (Muscles), 1.91 %ID/g in the data set “in vivo” (setting [8]), 1.27 %ID/g in the data set “in vivo” (SW620 tumor (wtEGFR-negative)) and 1.68 %ID/g in the data set “in vivo” (Stomach). Besides, the tissue uptake at 3 h in the data set “in vivo” (Blood) was determined as 0.87 %ID/g; in “in vivo” (Colon) it was 0.42 %ID/g; in the data set “in vivo” (Heart), 0.45 %ID/g; in “in vivo” (Kidneys), 12.4 %ID/g; in “in vivo” (Liver), 1.07 %ID/g; in “in vivo” (Lungs), 0.61 %ID/g. Further, the tissue uptake at 3 h in the data set “in vivo” (Muscles) is 0.25 %ID/g; in “in vivo” (setting [8]) it was 1.7 %ID/g; in the data set “in vivo” (SW620 tumor (wtEGFR-negative)), 0.54 %ID/g; in “in vivo” (Stomach), 0.37 %ID/g.

For the compound “SYPIPDT [small 7-mer peptide ligand for wild-type EGFR identified by phage display (Hamzeh-Mivehroud et al.)]”, the “diminished the increased EGF-dependent phosphorylation of EGFR” value in the data set on EGFR is 44%.

Regarding “SYPIPDT-GHEG-ECG-K-tetramethylrhodamine [SYPIPDT-ECG-TAMRA, unlabeled precursor peptide with GHEG linker, ECG chelator and TAMRA dye]”, the “fluorescence activity of TAMRA on cells (confocal microscopy)” value is on record as “strong fluorescence activity” in data set [4] and “barely detectable” in data set [7].
